Measured values reported in the supplement of paper PMC10567573.
± gives the standard deviation.

Assay: protein stability index of a GFP-peptide fusion (GPS, HEK-293T) (PSI 1-6); higher = more stable
[1] = treatment: DMSO, c terminus: a fixed tail appended
[2] = treatment: MLN4924 1 uM, 8 h, c terminus: a fixed tail appended
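Note: 24-mer peptide tiles fused after GFP, lentivirally expressed, FACS-sorted into six equal bins by GFP/DsRed ratio, decoded by Illumina sequencing, PSI is the read-weighted mean bin number.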

Sequence	protein stability index [1]	protein stability index [2]	protein stability index (treatment: DMSO, c terminus: native)	protein stability index (treatment: MLN4924 1 uM, 8 h, c terminus: native)
LMSLQNQLKESKSKIDALSSEKLN [CEP70]	4.13 ± 0.15	4.05 ± 0.19	–	–
APLLRWVLTLSFLVATVAVGLYAM [HMOX1]	2.84 ± 0.56	2.74 ± 0.69	–	–
PNNKEIPSHHPTDPVELRRLNFQT [PTPRD]	4.15 ± 0.18	4.35 ± 0.081	–	–
QDLKLFLQEPGVFSPTPPQQFQPA [FCHSD1]	3.26 ± 0.34	3.55 ± 0.55	–	–
TLGYMPTEMELLEVSQHIKMRMGG [CABP4]	2.96 ± 0.18	2.94 ± 0.54	–	–
VDEAAAESPSFLSLRKGASLSNGQ [NCK2]	4.83 ± 0.14	5.08 ± 0.23	–	–
TTSTLASSLPGHAAKTLPGGAGKG [EHMT1]	4.77 ± 0.15	5.28 ± 0.16	–	–
QGASWELQSLRPHDEDIKTTNVKS [ZNF396]	5.14 ± 0.097	5.19 ± 0.21	–	–
VREIVKECSNIPLSQPQQGEAMLA [GAN]	4.28 ± 0.37	4.31 ± 0.36	–	–
WYSRLQACQWGGNFLAFSVRRVS	–	–	3.17 ± 0.58	2.15 ± 0.83
PSDLDSTGNSLNEPEEPSEIPERR [DLC1]	5.64 ± 0.21	5.62 ± 0.23	–	–
HVGELIIWDALDWTMQAYERNFWD [WDR41]	2.33 ± 0.26	2.25 ± 0.26	–	–
LVPKTHLMSESEWRNLGVQQSQGW [CKS1B]	2.64 ± 0.32	2.86 ± 0.2	–	–
LLGEIDLEKESDTPLQQVSIEEIL [LSM1]	4.97 ± 0.16	4.93 ± 0.27	–	–
RHCKKYWLISEEEKTQKNQCWKSL [FBXO3]	2.5 ± 0.35	2.96 ± 0.4	–	–
PNIAMTSGTVQPKQDAFANFANFS [CLINT1]	3.61 ± 0.34	3.66 ± 0.14	–	–
NFSIVPYEKKFDTFIPLEPLPQIP [SPATS1]	3.04 ± 0.33	2.97 ± 0.34	–	–

Sequence	protein stability index [1]	protein stability index [2]	protein stability index (treatment: DMSO, c terminus: native)	protein stability index (treatment: MLN4924 1 uM, 8 h, c terminus: native)
REERLRRENEELSARYLSQCQEAE [FBF1]	5.26 ± 0.29	4.97 ± 0.54	–	–
FLLKFLLVGDRDVGKSEILESLQD [RAB40A]	2.65 ± 0.43	2.9 ± 0.56	–	–
QGTGYIPTEQVNELVALIPHSDQR [TMEM106C]	4.73 ± 0.18	4.67 ± 0.18	–	–
TGTVHRIDNTTVIYNSNIFTDPFF [KCNA1]	2.89 ± 0.27	3.05 ± 0.2	–	–
LLWRKQLFCDVTLTAQGQQFHCHK [KLHL14]	2.23 ± 0.41	1.99 ± 0.23	–	–
PVEDSHTADISSHFQEAIDFIDCV [DUSP5]	4.54 ± 0.21	4.44 ± 0.32	–	–
TSILSRLPPEALTAPSGGQWGAEP [RNF208]	3.94 ± 0.14	4.05 ± 0.11	–	–
ADSLQASMEKDATLNVDRKEKCVS [DLC1]	5.35 ± 0.35	5.3 ± 0.25	–	–
LLCPLCQEEEQAETPMAPVPLGPL [TRIM15]	3.38 ± 0.67	3.73 ± 0.35	–	–
IRIIDRALKEDFGFKHRLWVYSGR [PRIM1]	2.18 ± 0.51	2.27 ± 0.51	–	–
SLGQDLRRLRQELLKTEALKRQAQ [DAPK3]	3.09 ± 0.59	2.96 ± 0.14	–	–
AENLDVKINENVAAGMRFPLPEAI [PCDHGA10]	4.29 ± 0.2	4.28 ± 0.15	–	–
LEEGKHSSHEVKALGAMWKLHKSQ [TRIM9]	3.83 ± 0.22	4.22 ± 0.19	–	–
GLEGLFEDIDTSMYDNELWAPASE [SERTAD1]	3.79 ± 0.05	3.81 ± 0.29	–	–
LLRQLGRDAGATPSAAGAPASAPG [ANKRD9]	4.12 ± 0.4	4.36 ± 0.15	–	–
GSELRDFPGRPMGHLSKDVDENDS [DLC1]	5.63 ± 0.24	5.51 ± 0.17	–	–
